In patent publication US20260115305A1, “LINKERS, CONJUGATES AND APPLICATIONS THEREOF” (GENEQUANTUM HEALTHCARE (SUZHOU) CO., LTD., priority 2022, published 2026):

T1: TROP2 (human, UniProt P09758 27-323)
T1 sequence (looked up): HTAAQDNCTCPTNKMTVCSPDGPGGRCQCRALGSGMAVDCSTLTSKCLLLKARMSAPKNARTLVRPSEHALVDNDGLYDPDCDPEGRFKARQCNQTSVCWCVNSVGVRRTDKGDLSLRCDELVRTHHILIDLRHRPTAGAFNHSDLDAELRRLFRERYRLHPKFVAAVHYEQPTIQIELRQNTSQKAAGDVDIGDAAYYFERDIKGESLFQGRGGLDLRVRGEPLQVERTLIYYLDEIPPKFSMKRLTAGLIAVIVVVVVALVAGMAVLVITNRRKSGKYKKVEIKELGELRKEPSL


Columns and labels:
[1] = first-phase clinical trial; cited from earlier work
[2] = target: T1, TROP2; experiment: cell-based or functional assay
[3] = target: T1, TROP2; experiment: cell-based or functional assay; remark: listed apart in the source

| Molecule | patients with adverse events above Grade 3 [1] [%] | patients with interstitial lung disease [1] [%] | IC50, inhibition of proliferation of TROP2-positive BxPC-3 cells (CellTiterGlo, 120 h) [2] [nM] | Endocytosis by TROP2-positive tumor cells: Half Life [3] [min] | Endocytosis by TROP2-positive tumor cells: Maximum endocytosis (MFI) [3] [MFI] | Endocytosis by TROP2-positive tumor cells: Maximum endocytosis rate (%) [3] [%] |
| --- | --- | --- | --- | --- | --- | --- |
| DS1062 | 48 | 8 |  |  |  |  |
| ADC-5 (antibody, human IgG1, kappa, V domains shown, Linker-Payload 1 joined by Sortase A ligation at the C-terminal GALPETGG tag of the light chain (resulting sequence LPXTGn with n = 3, then linker-payload); DAR value 3.5) VH: QVQLQQSGSELKKPGASVKVSCKASGYTFTNYGMNWVKQAPGQGLKWMGWINTYTGEPTYTDDFKGRFAFSLDTSVSTAYLQISSLKADDTAVYFCARGGFGSSYWYFDVWGQGSLVTVSS VL: DIQLTQSPSSLSASVGDRVSITCKASQDVSIAVAWYQQKPGKAPKLLIYSASYRYTGVPDRFSGSGSGTDFTLTISSLQPEDFAVYYCQQHYITPLTFGAGTKVEIKR |  |  | 0.249 | 45.6 | 18600 | 46 |
| ADC-7 (antibody, human IgG1, kappa, V domains shown, Linker-Payload 3 joined by Sortase A ligation at the C-terminal GALPETGG tag of the light chain; DAR value 3.6) VH: QVQLQQSGSELKKPGASVKVSCKASGYTFTNYGMNWVKQAPGQGLKWMGWINTYTGEPTYTDDFKGRFAFSLDTSVSTAYLQISSLKADDTAVYFCARGGFGSSYWYFDVWGQGSLVTVSS VL: DIQLTQSPSSLSASVGDRVSITCKASQDVSIAVAWYQQKPGKAPKLLIYSASYRYTGVPDRFSGSGSGTDFTLTISSLQPEDFAVYYCQQHYITPLTFGAGTKVEIKR |  |  | 0.602 |  |  |  |
| ADC-6 (antibody, human IgG1, kappa, V domains shown, Linker-Payload 2 joined by Sortase A ligation at the C-terminal GALPETGG tag of the light chain; DAR value 3.6) VH: QVQLQQSGSELKKPGASVKVSCKASGYTFTNYGMNWVKQAPGQGLKWMGWINTYTGEPTYTDDFKGRFAFSLDTSVSTAYLQISSLKADDTAVYFCARGGFGSSYWYFDVWGQGSLVTVSS VL: DIQLTQSPSSLSASVGDRVSITCKASQDVSIAVAWYQQKPGKAPKLLIYSASYRYTGVPDRFSGSGSGTDFTLTISSLQPEDFAVYYCQQHYITPLTFGAGTKVEIKR |  |  | 0.254 | 42.8 | 18200 | 45 |
| Ab2 (antibody, human IgG1, kappa, V domains shown) VH: QVQLQQSGSELKKPGASVKVSCKASGYTFTNYGMNWVKQAPGQGLKWMGWINTYTGEPTYTDDFKGRFAFSLDTSVSTAYLQISSLKADDTAVYFCARGGFGSSYWYFDVWGQGSLVTVSS VL: DIQLTQSPSSLSASVGDRVSITCKASQDVSIAVAWYQQKPGKAPKLLIYSASYRYTGVPDRFSGSGSGTDFTLTISSLQPEDFAVYYCQQHYITPLTFGAGTKVEIKR |  |  |  | 48.2 | 18500 | 46 |
